This passage reports proliferation of BaF3/MPL-zalpha11 cells (Alamar Blue) (fold over background), inhibition of BaF3/Zalpha11 cell growth (Alamar Blue), concentration giving complete inhibition and titration of soluble receptor, lowest concentration giving complete inhibition of BaF3/Zalpha11 growth results from patent EP2105446A2.

The target of assay [1] is MPL-zalpha11 polypeptide chimera (MPL extracellular and TM domain fused to the zalpha11 intracellular signaling domain), expressed on BaF3 cells (human) (UniProt P40238). Put plainly: cell-based or functional assay.
Assay [2] addresses factor present in the activated CD3+ selected human T-cell conditioned media (human). In words: cell-based or functional assay.

Turning to thrombopoietin (TPO) (ligand), the proliferation of BaF3/MPL-zalpha11 cells (Alamar Blue) (fold over background) in assay [1] came out at 10. Consider “zalpha11-Fc4 (mutant) soluble receptor (zalpha11 extracellular domain fused C-terminally to human IgG/Fc) (from UniProt Q9HBE5 20-237) (Fc fusion)”, for which, in assay [2], the inhibition of BaF3/Zalpha11 cell growth (Alamar Blue), concentration giving complete inhibition is 10 µg/mL and the titration of soluble receptor, lowest concentration giving complete inhibition of BaF3/Zalpha11 growth is 1.5 µg/mL.
